The record followed here is US20220409701A1, “PROCESS FOR PRODUCING A TABLET COMPRISING GLP-1 PEPTIDES” (Novo Nordisk A/S, priority 2019, published 2022).

This series can be described thus: Isoelectric point (pI) of the GLP-1 peptide. It is filed as physicochemical. To be noted: pH value where the peptide carries no net charge. The source says: Exemplary non-volatile bases are sodium hydroxide, potassium hydroxide, buffers selected from e.g. a phosphate buffer, a TRIS buffer, an acetate buffer. The ‘pI’ as used herein refers to the isoelectric point of the GLP-1 peptide, i.e. the pH value where the peptide carried no net charge.

For “N^6,26-{18-[N-(17-carboxyheptadecanoyl)-L-γ-glutamyl]-10-oxo-3,6,12,15-tetraoxa-9,18-diazaoctadecanoyl}-[8-(2-amino-2-propanoic acid), 34-L-arginine]human glucagon-like peptide 1(7-37) [semaglutide]”, the pI entry was “about 5.4”.

Consider “Nε27-[2-[2-[2-[[2-[2-[2-[[(4S)-4-carboxy-4-[10-(4-carboxyphenoxy)decanoylamino]butanoyl]amino]ethoxy]ethoxy]acetyl]amino]ethoxy]ethoxy]acetyl], Nε36-[2-[2-[2-[[2-[2-[2-[[(4S)-4-carboxy-4-[10-(4-carboxyphenoxy)decanoylamino]butanoyl]amino]ethoxy]ethoxy]acetyl]amino]ethoxy]ethoxy]a cetyl]-[Aib8,Glu22,Arg26,Lys27,Glu30,Arg34,Lys36]-GLP-1-(7-37)-peptidyl-Glu-Gly [Compound A]”, for which the pI result was “about 4.6”.
